Laboratory results taken from patent publication US20240391959A1 (Bicycle, published 2024).
Starred links: 1 amine or outer side, 2 acyl side, 3 side chain; linkers in the order of their positions; H or OH if unused. Positions of bridges follow the written chain, without caps; N, C: chain ends. No end group written: not given here. TATB = O=C(C[*:1])N1CN(C(=O)C[*:2])CN(C(=O)C[*:3])C1

Experiments:
[1] = target: T1, Recombinant human transferrin receptor 1 (TfR1), His6-tagged, a.a. 89-760 (human, UniProt P02786 89-760); experiment: SPR, TfR1 on chip; Table 2, geomean of n = 5
T1 construct: range 89-760; SPR used ACRO Biosystems CD1-H5243 (His6, a.a. 89-760); also called Human TfR1; CD71; not shown: His6 tag
T1 sequence (P02786 89-760 limits assumed): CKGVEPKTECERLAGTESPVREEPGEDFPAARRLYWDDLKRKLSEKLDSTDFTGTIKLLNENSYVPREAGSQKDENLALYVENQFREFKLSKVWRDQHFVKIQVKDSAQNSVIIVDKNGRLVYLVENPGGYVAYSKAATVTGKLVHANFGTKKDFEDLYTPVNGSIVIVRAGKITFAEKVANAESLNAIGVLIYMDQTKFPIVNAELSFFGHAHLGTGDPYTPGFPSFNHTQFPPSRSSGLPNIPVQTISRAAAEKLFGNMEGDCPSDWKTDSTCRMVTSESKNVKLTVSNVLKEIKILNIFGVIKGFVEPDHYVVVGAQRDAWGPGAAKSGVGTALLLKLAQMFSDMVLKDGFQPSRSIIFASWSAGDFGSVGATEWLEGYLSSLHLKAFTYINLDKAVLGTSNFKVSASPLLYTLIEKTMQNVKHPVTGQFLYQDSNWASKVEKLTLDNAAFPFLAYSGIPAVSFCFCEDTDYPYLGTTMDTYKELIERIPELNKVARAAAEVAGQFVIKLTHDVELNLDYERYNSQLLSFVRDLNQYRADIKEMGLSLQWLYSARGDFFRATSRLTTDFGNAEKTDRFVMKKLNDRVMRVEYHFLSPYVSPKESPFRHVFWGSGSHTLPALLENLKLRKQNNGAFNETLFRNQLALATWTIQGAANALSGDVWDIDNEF

[2] = target: T2, Recombinant cynomolgus transferrin receptor 1 (TfR1), His6-tagged, a.a. 89-760 (cynomolgus, UniProt H9EXL1 89-760 (rhesus entry)); experiment: SPR, TfR1 on chip; Table 2, geomean of n = 2
T2 construct: range 89-760; Bought, ACRO Biosystems TFR-C524a; also called Cyno TfR1; Cynomolgus TfR1; not shown: His6 tag
T2 sequence (chain, as listed by the source): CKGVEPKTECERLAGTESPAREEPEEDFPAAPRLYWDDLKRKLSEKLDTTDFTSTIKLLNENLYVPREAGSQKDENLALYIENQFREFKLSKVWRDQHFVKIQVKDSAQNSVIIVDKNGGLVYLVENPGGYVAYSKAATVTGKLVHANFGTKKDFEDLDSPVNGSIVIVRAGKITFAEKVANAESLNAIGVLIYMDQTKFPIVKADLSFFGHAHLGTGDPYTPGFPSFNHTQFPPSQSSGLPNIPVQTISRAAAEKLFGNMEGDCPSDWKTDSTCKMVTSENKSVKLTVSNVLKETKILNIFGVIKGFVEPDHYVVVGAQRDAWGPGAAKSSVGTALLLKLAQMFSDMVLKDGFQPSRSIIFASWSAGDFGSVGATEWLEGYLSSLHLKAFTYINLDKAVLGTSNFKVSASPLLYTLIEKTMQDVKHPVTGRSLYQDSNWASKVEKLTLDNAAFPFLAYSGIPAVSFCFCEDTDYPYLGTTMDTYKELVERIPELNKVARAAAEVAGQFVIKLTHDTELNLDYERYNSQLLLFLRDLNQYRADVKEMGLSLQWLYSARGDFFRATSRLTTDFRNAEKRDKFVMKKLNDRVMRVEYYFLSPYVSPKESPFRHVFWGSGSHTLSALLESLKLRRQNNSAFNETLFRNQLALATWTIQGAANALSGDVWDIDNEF

B1: BCY15468 (peptide)
peptide: ACSPDAHLGCISYCA
modifications: linker 2-10-14 via TATB
[1]
  Kd: 37.8 nM

B2: BCY13989 (peptide)
peptide: ACPPDSWQGCISYCA
modifications: Cys Ci, Cii, Ciii on TATB scaffold
[2]
  Kd: 3440 nM
